Reference: US20050042213
Like-named read-outs stand apart in the source and are kept apart here.

T1: pro-heparanase (H60), purified recombinant human 60 kDa latent heparanase
T1 chain: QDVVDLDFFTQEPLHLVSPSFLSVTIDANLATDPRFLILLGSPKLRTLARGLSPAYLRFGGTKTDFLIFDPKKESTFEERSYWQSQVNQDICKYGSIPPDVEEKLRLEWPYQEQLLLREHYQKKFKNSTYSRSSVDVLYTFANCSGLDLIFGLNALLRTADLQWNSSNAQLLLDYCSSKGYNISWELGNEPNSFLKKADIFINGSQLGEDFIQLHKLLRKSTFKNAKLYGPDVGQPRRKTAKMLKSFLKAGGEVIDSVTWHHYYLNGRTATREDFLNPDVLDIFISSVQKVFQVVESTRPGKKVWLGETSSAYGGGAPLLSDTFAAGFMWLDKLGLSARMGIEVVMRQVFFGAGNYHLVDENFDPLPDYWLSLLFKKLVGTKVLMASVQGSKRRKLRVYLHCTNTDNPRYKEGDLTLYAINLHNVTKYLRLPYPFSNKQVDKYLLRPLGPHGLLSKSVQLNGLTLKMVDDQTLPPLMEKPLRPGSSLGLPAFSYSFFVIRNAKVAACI

T2: pro-heparanase (H60), purified recombinant human 60 kDa latent heparanase
T2 sequence: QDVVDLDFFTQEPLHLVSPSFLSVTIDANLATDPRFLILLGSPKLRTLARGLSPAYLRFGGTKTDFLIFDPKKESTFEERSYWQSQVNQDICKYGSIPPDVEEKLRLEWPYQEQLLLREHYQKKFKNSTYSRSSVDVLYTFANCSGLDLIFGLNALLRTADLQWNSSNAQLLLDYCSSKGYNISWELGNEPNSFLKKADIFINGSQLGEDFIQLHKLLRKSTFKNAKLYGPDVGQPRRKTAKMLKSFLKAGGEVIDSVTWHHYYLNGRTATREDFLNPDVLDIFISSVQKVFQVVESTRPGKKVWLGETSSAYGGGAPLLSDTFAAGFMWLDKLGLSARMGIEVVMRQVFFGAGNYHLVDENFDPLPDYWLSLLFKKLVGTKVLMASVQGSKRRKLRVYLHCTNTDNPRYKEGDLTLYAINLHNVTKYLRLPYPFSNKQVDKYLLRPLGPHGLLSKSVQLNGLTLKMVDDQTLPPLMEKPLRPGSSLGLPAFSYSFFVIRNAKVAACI


How the values were obtained:
[1] = biological target: T1, pro-heparanase (H60), purified …
[2] = test system: T2, pro-heparanase (H60), purified recombinant human 60 kDa latent heparanase; remark: listed apart in the source

Protein	heparanase activity after treatment (DMB assay) [1]	processing of pro-heparanase in vitro (Western blot) [1]	heparanase activity after treatment (DMB assay) [2]	processing of pro-heparanase in vitro (Western blot) [2]
elastase from human neutrophils (Calbiochem, 324681) (protein) IVGGRRARPHAWPFMVSLQLRGGHFCGATLIAPNFVMSAAHCVANVNVRAVRVVLGAHNLSRREPTRQVFAVQRIFENGYDPVNLLNDIVILQLNGSATINANVQVAQLPAQGRRLGNGVQCLAMGWGLLGRNRGIASVLQELNVTVVTSLCRRSNVCTLVRGRQAGVCFGDSGSPLVCNGLIHGIASFVRGGCASGLYPDAFAPVAQFVNWIDSIIQ	treatment of the pro heparanase with cathepsin G or elastase activated the H60	cathepsin G (FIG. 18) and elastase (FIG. 5), both serine proteases, cleave the pro-heparanase in-vitro, at or near the N-terminus of the H45	–	–
cathepsin G (Sigma, C4428) (enzyme, UniProt P08311 21-244, looked up, species assumed) Cathepsin G: IIGGRESRPHSRPYMAYLQIQSPAGQSRCGGFLVREDFVLTAAHCWGSNINVTLGAHNIQRRENTQQHITARRAIRHPQYNQRTIQNDIMLLQLSRRVRRNRNVNPVALPRAQEGLRPGTLCTVAGWGRVSMRRGTDTLREVQLRVQRDRQCLRIFGSYDPRRQICVGDRRERKAAFKGDSGGPLLCNNVAHGIVSYGKSSGVPPEVFTRVSSFLPWIRTTMRS	–	–	treatment of the pro heparanase with cathepsin G or elastase activated the H60	cathepsin G (FIG. 18) and elastase (FIG. 5), both serine proteases, cleave the pro-heparanase in-vitro, at or near the N-terminus of the H45
